Measurements published in patent US20110038790A1.

Columns and labels:
[1] = target: mAbs 2A4, 8G9 and 7D8, told of as a group; assay: competition ELISA, told for the three mAbs together
[2] = target: mAbs 2A4, 8G9 and 7D8, told of as a group; assay: competition ELISA, value told for the three mAbs together

B1: human AA amyloid (renal AA amyloid extract or tissue deposits) (protein, UniProt P0DJI8 19-94, looked up)
chain: RSFFSFLGEAFDGARDMWRAYSDMREANYIGSDKYFHARGNYDAAKRGPGGAWAAEVITDARENIQRFFGHGAEDS
[1]
  fold greater IC50 than murine AEF in solution: 6 to 44 fold

B2: murine AA amyloid (AA fibrils, amyloid enhancing factor extract or tissue deposits) (protein, mouse, UniProt P05367 20-94, looked up)
chain: GFFSFIGEAFQGAGDMWRAYTDMKEAGWKDGDKYFHARGNYDAAQRGPGGVWAAEKISDARESFQEFFGRGHEDT
[2]
  IC50: 20 µg/mL
